Results published in the supplement of paper PMC7125110.
± gives the standard error. This sample holds only a part of the variants without activity.

B1: glmS ribozyme (parent)
chain: AUAAAAGCGCCAGAACUACAGAAAUGUAGUUGACGAGGAGGAGGUUUAUCGAAUUUUCGGCGGAUGCCUCCAAA

Columns and labels:
glucosamine-6-phosphate [1] = variants of: B1; assay: self-cleavage kobs at 640 uM GlcN6P; higher = faster cleavage; RNA array; details: with glucosamine-6-phosphate
Outline: (§1)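 Ribozyme variants carrying barcodes were transcribed in situ on sequenced MiSeq chips by E. coli RNA polymerase and tracked at 37 °C with a hybridised Cy3 probe. They were exposed to 40 μM to 10 mM glucosamine-6-phosphate in HEPES/KCl/Mg(OAc)2 buffer. kobs came from exponential decay fits of normalised per-tile medians, and kcat and KM from weighted Michaelis–Menten fits.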

glucosamine-6-phosphate [2] = variants of: B1; assay: self-cleavage kobs at 2500 uM GlcN6P; higher = faster cleavage; RNA array; details: with glucosamine-6-phosphate
Outline: as §1

In the case of A33G A39C G44A C71G, the “self-cleavage kobs at 640 uM GlcN6P” value (glucosamine-6-phosphate [1]) is reported as under 1e-05 s⁻¹ and the “self-cleavage kobs at 2500 uM GlcN6P” value (glucosamine-6-phosphate [2]) is reported as under 1e-05 s⁻¹.

In the case of G44C U57G C58U, the “self-cleavage kobs at 640 uM GlcN6P” value (glucosamine-6-phosphate [1]) is reported as under 1e-05 s⁻¹.

For A6U C16U G41U, the “self-cleavage kobs at 640 uM GlcN6P” value (glucosamine-6-phosphate [1]) was under 1e-05 s⁻¹.

With U31A U55G C67U the “self-cleavage kobs at 640 uM GlcN6P” value (glucosamine-6-phosphate [1]) was 0.000859 ± 0.00023 s⁻¹ and the “self-cleavage kobs at 2500 uM GlcN6P” value (glucosamine-6-phosphate [2]) was 0.000519 ± 0.00025 s⁻¹.

For C16U A39G C58A, the “self-cleavage kobs at 640 uM GlcN6P” value (glucosamine-6-phosphate [1]) was 9.4e-05 ± 1.7e-05 s⁻¹ and the “self-cleavage kobs at 2500 uM GlcN6P” value (glucosamine-6-phosphate [2]) was 0.000347 ± 4.1e-05 s⁻¹.

With A6C G35U G37U G38C the “self-cleavage kobs at 640 uM GlcN6P” value (glucosamine-6-phosphate [1]) was under 1e-05 s⁻¹.

G13C G37U G60U was tested, and the “self-cleavage kobs at 640 uM GlcN6P” value (glucosamine-6-phosphate [1]) was under 1e-05 s⁻¹.

For A6U G9A C50U, the “self-cleavage kobs at 640 uM GlcN6P” value (glucosamine-6-phosphate [1]) was under 1e-05 s⁻¹.

With A39U G43U C50U the “self-cleavage kobs at 640 uM GlcN6P” value (glucosamine-6-phosphate [1]) was under 1e-05 s⁻¹ and the “self-cleavage kobs at 2500 uM GlcN6P” value (glucosamine-6-phosphate [2]) was under 1e-05 s⁻¹.

With A52U A53C C71G the “self-cleavage kobs at 640 uM GlcN6P” value (glucosamine-6-phosphate [1]) was under 1e-05 s⁻¹ and the “self-cleavage kobs at 2500 uM GlcN6P” value (glucosamine-6-phosphate [2]) was under 1e-05 s⁻¹.

For C11A G38U U47A, the “self-cleavage kobs at 640 uM GlcN6P” value (glucosamine-6-phosphate [1]) was under 1e-05 s⁻¹.

With G29U G40A C70U the “self-cleavage kobs at 640 uM GlcN6P” value (glucosamine-6-phosphate [1]) was 3.68e-05 ± 1.2e-05 s⁻¹.

In the case of A15G C16G C50G U54C, the “self-cleavage kobs at 640 uM GlcN6P” value (glucosamine-6-phosphate [1]) is reported as 0.00183 ± 0.00059 s⁻¹.

For C34U G37A A39G, the “self-cleavage kobs at 640 uM GlcN6P” value (glucosamine-6-phosphate [1]) was under 1e-05 s⁻¹ and the “self-cleavage kobs at 2500 uM GlcN6P” value (glucosamine-6-phosphate [2]) was under 1e-05 s⁻¹.

With G9C C50G G60C C70A the “self-cleavage kobs at 640 uM GlcN6P” value (glucosamine-6-phosphate [1]) was 0.000151 ± 4.9e-05 s⁻¹ and the “self-cleavage kobs at 2500 uM GlcN6P” value (glucosamine-6-phosphate [2]) was 0.000123 ± 3.7e-05 s⁻¹.

With G35U C58U A64U C68A the “self-cleavage kobs at 640 uM GlcN6P” value (glucosamine-6-phosphate [1]) was under 1e-05 s⁻¹.

For A14G C67U C71U, the “self-cleavage kobs at 640 uM GlcN6P” value (glucosamine-6-phosphate [1]) was 0.000875 ± 0.00018 s⁻¹ and the “self-cleavage kobs at 2500 uM GlcN6P” value (glucosamine-6-phosphate [2]) was 0.00249 ± 0.00091 s⁻¹.

With A12U C16A C50A A64G the “self-cleavage kobs at 640 uM GlcN6P” value (glucosamine-6-phosphate [1]) was under 1e-05 s⁻¹.

For C11U A14C A39G, the “self-cleavage kobs at 640 uM GlcN6P” value (glucosamine-6-phosphate [1]) was 0.000103 ± 3.3e-05 s⁻¹ and the “self-cleavage kobs at 2500 uM GlcN6P” value (glucosamine-6-phosphate [2]) was 0.000472 ± 0.00019 s⁻¹.

U45G G60A C67G was tested, and the “self-cleavage kobs at 640 uM GlcN6P” value (glucosamine-6-phosphate [1]) was under 1e-05 s⁻¹ and the “self-cleavage kobs at 2500 uM GlcN6P” value (glucosamine-6-phosphate [2]) was under 1e-05 s⁻¹.

For G29U C34U G40U A42C U55A G66U, the “self-cleavage kobs at 640 uM GlcN6P” value (glucosamine-6-phosphate [1]) was under 1e-05 s⁻¹ and the “self-cleavage kobs at 2500 uM GlcN6P” value (glucosamine-6-phosphate [2]) was under 1e-05 s⁻¹.

G44U A48U A64G C67G was tested, and the “self-cleavage kobs at 640 uM GlcN6P” value (glucosamine-6-phosphate [1]) was 0.000188 ± 7.9e-05 s⁻¹ and the “self-cleavage kobs at 2500 uM GlcN6P” value (glucosamine-6-phosphate [2]) was 0.000485 ± 0.00017 s⁻¹.

For A36U G43U U65A, the “self-cleavage kobs at 640 uM GlcN6P” value (glucosamine-6-phosphate [1]) was under 1e-05 s⁻¹ and the “self-cleavage kobs at 2500 uM GlcN6P” value (glucosamine-6-phosphate [2]) was under 1e-05 s⁻¹.

With A42U C67A U69G C71U the “self-cleavage kobs at 640 uM GlcN6P” value (glucosamine-6-phosphate [1]) was 4.51e-05 ± 2e-05 s⁻¹ and the “self-cleavage kobs at 2500 uM GlcN6P” value (glucosamine-6-phosphate [2]) was 7.23e-05 ± 1.9e-05 s⁻¹.

In the case of G35A C50U C67G C70U, the “self-cleavage kobs at 640 uM GlcN6P” value (glucosamine-6-phosphate [1]) is reported as under 1e-05 s⁻¹.

In the case of A52G U69G C70U, the “self-cleavage kobs at 640 uM GlcN6P” value (glucosamine-6-phosphate [1]) is reported as 0.000107 ± 3.1e-05 s⁻¹ and the “self-cleavage kobs at 2500 uM GlcN6P” value (glucosamine-6-phosphate [2]) is reported as 7.59e-05 ± 1.7e-05 s⁻¹.

For C8A G13A G37U G59C C68G, the “self-cleavage kobs at 640 uM GlcN6P” value (glucosamine-6-phosphate [1]) was 0.000781 ± 0.00025 s⁻¹.

For G60U G63U C70A, the “self-cleavage kobs at 640 uM GlcN6P” value (glucosamine-6-phosphate [1]) was under 1e-05 s⁻¹.

G7A A39U A48C was tested, and the “self-cleavage kobs at 640 uM GlcN6P” value (glucosamine-6-phosphate [1]) was under 1e-05 s⁻¹ and the “self-cleavage kobs at 2500 uM GlcN6P” value (glucosamine-6-phosphate [2]) was under 1e-05 s⁻¹.

With A52C G59A U69G the “self-cleavage kobs at 640 uM GlcN6P” value (glucosamine-6-phosphate [1]) was under 1e-05 s⁻¹.

With A12G A15G G35A C68G the “self-cleavage kobs at 640 uM GlcN6P” value (glucosamine-6-phosphate [1]) was under 1e-05 s⁻¹.

With A12C U46A G62C the “self-cleavage kobs at 640 uM GlcN6P” value (glucosamine-6-phosphate [1]) was under 1e-05 s⁻¹.

In the case of G7C C8A A42U, the “self-cleavage kobs at 640 uM GlcN6P” value (glucosamine-6-phosphate [1]) is reported as under 1e-05 s⁻¹.

In the case of G40U U46G U47G U55A G63U, the “self-cleavage kobs at 640 uM GlcN6P” value (glucosamine-6-phosphate [1]) is reported as under 1e-05 s⁻¹ and the “self-cleavage kobs at 2500 uM GlcN6P” value (glucosamine-6-phosphate [2]) is reported as under 1e-05 s⁻¹.

In the case of G7C A15U G43A A48G C67A, the “self-cleavage kobs at 640 uM GlcN6P” value (glucosamine-6-phosphate [1]) is reported as under 1e-05 s⁻¹ and the “self-cleavage kobs at 2500 uM GlcN6P” value (glucosamine-6-phosphate [2]) is reported as under 1e-05 s⁻¹.
